Measurements as given in US20250092146A1 (ABILITA BIO, published 2025).
Substitutions are numbered along the chain they refer to. Values belong to the binder of their own block, whether it stands above or below them.

Columns and labels:
human CCR8 (hCCR8) [1] = target: T1, human CCR8 (hCCR8) (human, UniProt P51685 1-355); assay: cell-based or functional assay
[2] = target: T2, Chimera A (hCCR8 with its N-terminus replaced by amino acids 1-22 of hCCR1) (human (hCCR8/hCCR1 chimera), UniProt P51685 18-355); assay: flow cytometry (MFI), HEK293T cells expressing Chimera A (hCCR8 with hCCR1 N-terminus)
T2 construct: Transiently transfected HEK293T cells
Description: Determination of binding epitope location on hCCR8 was done for representative VHH-Fc antibodies by flow cytometry analysis using HEK293T cells expressing hCCR8 or two receptor chimeras comprised of combined sequence elements taken from hCCR8 (SEQ ID NO: 37) and hCCR1 (SEQ ID NO: 39). In the first, Chimera A based on hCCR8, the N-terminal region of the receptor (SEQ ID NO: 38) was replaced with a sequence encoding the N-terminal region of hCCR1 (SEQ ID NO: 40). In Chimera B based on hCCR1, the N-terminal region of the receptor was replaced by the sequence encoding the hCCR8 N-terminus (SEQ ID NO: 38).

human CCR8 (hCCR8) [3] = target: T1, human CCR8 (hCCR8); assay: competition with 10 nM VHH-1-Fc, flow cytometry on HEK293-hCCR8 cells
Protocol: Binding studies were conducted on hCCR8 expressing cells for 60 minutes at 4° C., followed by two washes and then 30 minutes incubation at 4° C. with the Zenon R-Phycoerythrin Anti-human IgG secondary antibody (ThermoFisher Scientific, #Z-25455). Binding to cells was assessed by flow cytometry.

human CCR7 (hCCR7) = target: T3, human CCR7 (hCCR7) (human, UniProt P32248 25-378); assay: flow cytometry, HEK293 cells stably expressing hCCR7, anti-VHH detection
T3 construct: HEK293 cells stably expressing hCCR7
T3 sequence: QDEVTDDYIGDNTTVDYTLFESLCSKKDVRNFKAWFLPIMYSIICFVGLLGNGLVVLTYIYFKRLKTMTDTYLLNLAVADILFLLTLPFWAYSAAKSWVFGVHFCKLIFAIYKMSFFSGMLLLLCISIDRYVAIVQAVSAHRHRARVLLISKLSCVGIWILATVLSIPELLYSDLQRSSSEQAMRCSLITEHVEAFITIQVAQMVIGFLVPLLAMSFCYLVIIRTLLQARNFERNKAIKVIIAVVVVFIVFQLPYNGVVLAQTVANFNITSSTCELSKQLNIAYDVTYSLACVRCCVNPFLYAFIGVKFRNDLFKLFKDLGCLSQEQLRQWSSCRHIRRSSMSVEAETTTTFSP
Protocol: Recombinant cells expressing hCCR8 were resuspended to a final concentration of 1.0×10⁶ cells/ml in FACS buffer. […] Dilutions of purified VHHs were incubated with cells for 60 min. Individual samples were distributed into 96-well v-bottom plates and incubated for one hour at 4° C. […] Binding was determined in parallel on HEK293 cells stably expressing the closely related receptor hCCR7 (SEQ ID NO: 41), as control for binding specificity.

T1 sequence (P51685 whole entry, the tested form may be a part): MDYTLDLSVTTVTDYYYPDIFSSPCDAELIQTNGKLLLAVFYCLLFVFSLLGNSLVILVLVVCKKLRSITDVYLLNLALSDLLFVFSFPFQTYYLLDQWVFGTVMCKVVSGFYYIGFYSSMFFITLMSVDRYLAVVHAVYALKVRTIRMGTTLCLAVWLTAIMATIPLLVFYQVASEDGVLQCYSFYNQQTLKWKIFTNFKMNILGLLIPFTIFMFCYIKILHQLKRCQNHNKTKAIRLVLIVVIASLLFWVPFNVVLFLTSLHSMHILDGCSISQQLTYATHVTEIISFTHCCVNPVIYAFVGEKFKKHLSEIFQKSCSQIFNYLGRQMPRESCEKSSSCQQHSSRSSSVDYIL
T2 sequence (P51685 other isoform, or with tags, fused parts or gaps mutant): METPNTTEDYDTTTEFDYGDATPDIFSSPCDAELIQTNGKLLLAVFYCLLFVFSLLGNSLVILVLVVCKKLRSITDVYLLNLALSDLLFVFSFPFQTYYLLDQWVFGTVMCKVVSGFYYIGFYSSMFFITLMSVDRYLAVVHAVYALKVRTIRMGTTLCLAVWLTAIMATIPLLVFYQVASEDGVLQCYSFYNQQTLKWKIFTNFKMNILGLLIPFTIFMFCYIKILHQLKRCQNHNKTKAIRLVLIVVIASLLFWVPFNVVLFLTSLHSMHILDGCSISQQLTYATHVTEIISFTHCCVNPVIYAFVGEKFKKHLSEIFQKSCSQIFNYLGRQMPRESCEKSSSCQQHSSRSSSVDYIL

B1: VHH-1.3-7-mFc (Fc fusion)
chain: EVQLVESGGGLVQPGGSLRLSCAVSGSTSSIRRIGWYRQAPGKGRELVAHFSSGGGTNYADSVKGRFTISGDKSKNTMYLQMNSLRAEDTAVYYCSARRLLGTSRVDYWGQGTTVTVSSEPRGPTIKPCPPCKCPAPNLLGGPSVFIFPPKIKDVLMISLSPIVTCVVVDVSEDDPDVQISWFVNNVEVHTAQTQTHREDYNSTLRVVSALPIQHQDWMSGKEFKCKVNNKDLPAPIERTISKPKGSVRAPQVYVLPPPEEEMTKKQVTLTCMVTDFMPEDIYVEWTNNGKTELNYKNTEPVLDSDGSYFMYSKLRVEKKNWVERNSYSCSVVHEGLHNHHTTKSFSRTPGK
EC50 (nM), ADCC reporter assay, mouse FcγRIV effector cells, HuT-78 target cells (human CCR8 (hCCR8) [1]): 0.007 nM
Fold Induction, ADCC reporter assay, mouse FcγRIV effector cells, HuT-78 target cells (human CCR8 (hCCR8) [1]): 12 fold

B2: VHH-1.3-20-mFc (Fc fusion)
chain: B1 chain with R33G, H50R, S52I, K73N, R99I, T114Q
EC50 (nM), ADCC reporter assay, mouse FcγRIV effector cells, HuT-78 target cells (human CCR8 (hCCR8) [1]): 0.345 nM
Fold Induction, ADCC reporter assay, mouse FcγRIV effector cells, HuT-78 target cells (human CCR8 (hCCR8) [1]): 9.74 fold

B3: VHH-1.3-19-mFc (Fc fusion)
chain: B1 chain with R33G, T114Q
EC50 (nM), ADCC reporter assay, mouse FcγRIV effector cells, HuT-78 target cells (human CCR8 (hCCR8) [1]): 0.024 nM
Fold Induction, ADCC reporter assay, mouse FcγRIV effector cells, HuT-78 target cells (human CCR8 (hCCR8) [1]): 11.3 fold

B7: VHH-1-mFc (Fc fusion)
chain: QVQLQESGGGLVQAGGSLRLSCVASGSTSSIRRIGWYRQAPGKQRELVARFSSGGGTNYADFVKGRFTISGDNAKNTMYLQMNSLKPEDTAVYYCSARRLLGTSRVDYWGQGTQVTVSSEPRGPTIKPCPPCKCPAPNLLGGPSVFIFPPKIKDVLMISLSPIVTCVVVDVSEDDPDVQISWFVNNVEVHTAQTQTHREDYNSTLRVVSALPIQHQDWMSGKEFKCKVNNKDLPAPIERTISKPKGSVRAPQVYVLPPPEEEMTKKQVTLTCMVTDFMPEDIYVEWTNNGKTELNYKNTEPVLDSDGSYFMYSKLRVEKKNWVERNSYSCSVVHEGLHNHHTTKSFSRTPGK
EC50 (nM), ADCC reporter assay, mouse FcγRIV effector cells, HuT-78 target cells (human CCR8 (hCCR8) [1]): 0.015 nM
Fold Induction, ADCC reporter assay, mouse FcγRIV effector cells, HuT-78 target cells (human CCR8 (hCCR8) [1]): 12 fold

B8: VHH-1 (VHH, not shown: small tags and cut ends)
VHH: QVQLQESGGGLVQAGGSLRLSCVASGSTSSIRRIGWYRQAPGKQRELVARFSSGGGTNYADFVKGRFTISGDNAKNTMYLQMNSLKPEDTAVYYCSARRLLGTSRVDYWGQGTQVTVSS
notes: Monovalent VHH purified from E. coli periplasm (PelB signal peptide)
binding result (human CCR7 (hCCR7)): no binding

Further lines, results first:

EC50 (nM), ADCC reporter assay, mouse FcγRIV effector cells, HuT-78 target cells (human CCR8 (hCCR8) [1]): 0.042 nM
Fold Induction, ADCC reporter assay, mouse FcγRIV effector cells, HuT-78 target cells (human CCR8 (hCCR8) [1]): 11.4 fold
B4: VHH-1.3-21-mFc (Fc fusion)
chain: B1 chain with R33G, H50R, S52I, G71A, K73N, T114Q

binding result [2]: no binding
B5: BMS-4A19 (antibody, human IgG1, kappa)
heavy: not shown
light: DIVMTQTPLSLSVTPGQPASISCRSSQSLFHSSGNTYLHWYLQKPGQPPQLLIYKVSNRFSGVPDRFSGSGSGTDFTLKISRVEAEDVGVYYCSQSTHVPFTFGQGTKLEIKRTVAAPSVFIFPPSDEQLKSGTASVVCLLNNFYPREAKVQWKVDNALQSGNSQESVTEQDSKDSTYSLSSTLTLSKADYEKHKVYACEVTHQGLSSPVTKSFNRGEC
notes: Comparator from WO2021194942A1, made in HEK293 cells

binding result (human CCR8 (hCCR8) [3]): binds
B6: CCL1 (ligand, UniProt P22362 24-96, looked up)
chain: KSMQVPFSRCCFSFAEQEIPLRAILCYRNTSSICSNEGLIFKLKRGKEACALDTVGWVQRHRKMLRHCPSKRK
notes: also called hCCR8 agonist CCL1

binding result (human CCR7 (hCCR7)): no binding
B9: VHH-3 (VHH, not shown: small tags and cut ends)
VHH: B8 VHH with S96G
notes: as for B8
